Laboratory results from the supplement of paper PMC10567573.

B1: HSP90AB1 (parent)
chain: TLRQKAEADKNDKAVKDLVVLLFE

Variants of: B1
Assay: protein stability index of a GFP-peptide fusion (GPS, HEK-293T) (PSI 1-6); higher = more stable
Conditions: c terminus: a fixed tail appended
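Further: lentivirally expressed fusions sorted by FACS into six bins by GFP to DsRed ratio, PSI derived from sequencing read proportions per bin multiplied by bin number.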

Variant	protein stability index
TLRFKAEADKNDKAVKDLVVLLFE	2.58
TLRHKAEADKNDKAVKDLVVLLFE	2.37
TLRPKAEADKNDKAVKDLVVLLFE	3.06
TLRKKAEADKNDKAVKDLVVLLFE	3.26
TLRRKAEADKNDKAVKDLVVLLFE	2.26
TLRAKAEADKNDKAVKDLVVLLFE	2.63
TLRIKAEADKNDKAVKDLVVLLFE	2.41
TLRGKAEADKNDKAVKDLVVLLFE	3.06
TLREKAEADKNDKAVKDLVVLLFE	3.39
TLRCKAEADKNDKAVKDLVVLLFE	2.51
TLRNKAEADKNDKAVKDLVVLLFE	2.71
TLRMKAEADKNDKAVKDLVVLLFE	2.48
TLRYKAEADKNDKAVKDLVVLLFE	2.37
TLRDKAEADKNDKAVKDLVVLLFE	3.32
TLRSKAEADKNDKAVKDLVVLLFE	3.21
TLQQKAEADKNDKAVKDLVVLLFE	3.11
TLWQKAEADKNDKAVKDLVVLLFE	2.6
TLEQKAEADKNDKAVKDLVVLLFE	3.17
TLFQKAEADKNDKAVKDLVVLLFE	2.8
TLLQKAEADKNDKAVKDLVVLLFE	3.11
TLYQKAEADKNDKAVKDLVVLLFE	2.35
TLTQKAEADKNDKAVKDLVVLLFE	3.59
TLDQKAEADKNDKAVKDLVVLLFE	3.57
TLAQKAEADKNDKAVKDLVVLLFE	3.46

Variant	protein stability index
TLGQKAEADKNDKAVKDLVVLLFE	2.72
TLCQKAEADKNDKAVKDLVVLLFE	2.75
TLHQKAEADKNDKAVKDLVVLLFE	2.84
TLKQKAEADKNDKAVKDLVVLLFE	3.36
TLNQKAEADKNDKAVKDLVVLLFE	3.1
TLIQKAEADKNDKAVKDLVVLLFE	3.18
TLSQKAEADKNDKAVKDLVVLLFE	3.58
TLRQKAEVDKNDKAVKDLVVLLFE	3.27
TLRQKAEGDKNDKAVKDLVVLLFE	3.9
TLRQKAEDDKNDKAVKDLVVLLFE	3.57
TLRQKAEWDKNDKAVKDLVVLLFE	3.03
TLRQKAEFDKNDKAVKDLVVLLFE	2.89
TLRQKAEHDKNDKAVKDLVVLLFE	2.85
TLRQKAENDKNDKAVKDLVVLLFE	3.35
TLRQKAEQDKNDKAVKDLVVLLFE	3.24
TLRQKAELDKNDKAVKDLVVLLFE	2.38
TLRQKAEEDKNDKAVKDLVVLLFE	3.16
TLRQKAERDKNDKAVKDLVVLLFE	2.87
TLRQKAEPDKNDKAVKDLVVLLFE	2.21
TLRQKAECDKNDKAVKDLVVLLFE	2.87
TLRQKAEADKPDKAVKDLVVLLFE	2.58
TLRQKAEADKFDKAVKDLVVLLFE	3.09
TLRQKAEADKLDKAVKDLVVLLFE	2.83
TLRQKAEADKDDKAVKDLVVLLFE	2.84

Variant	protein stability index
TLRQKAEADKRDKAVKDLVVLLFE	3.15
TLRQKAEADKADKAVKDLVVLLFE	3
TLRQKAEADKSDKAVKDLVVLLFE	2.95
TLRQKAEADKVDKAVKDLVVLLFE	2.89
TLRQKAEADKIDKAVKDLVVLLFE	2.98
TLRQKAEADKMDKAVKDLVVLLFE	3.11
TLRQKAEADKQDKAVKDLVVLLFE	2.62
TLRQKAEADKTDKAVKDLVVLLFE	3.37
TLRQKAEADKCDKAVKDLVVLLFE	2.88
TLRQKAEADKKDKAVKDLVVLLFE	2.43
TLRQKAEADKEDKAVKDLVVLLFE	3.21
TLRQKAEADKGDKAVKDLVVLLFE	3.13
TLRQKAEADKNKKAVKDLVVLLFE	1.99
TLRQKAEADKNIKAVKDLVVLLFE	2
TLRQKAEADKNFKAVKDLVVLLFE	2.24
TLRQKAEADKNAKAVKDLVVLLFE	2.44
TLRQKAEADKNTKAVKDLVVLLFE	2.22
TLRQKAEADKNGKAVKDLVVLLFE	2.48
TLRQKAEADKNRKAVKDLVVLLFE	3.48
TLRQKAEADKNWKAVKDLVVLLFE	2.07
TLRQKAEADKNNKAVKDLVVLLFE	2.62
TLRQKAEADKNHKAVKDLVVLLFE	2.56
TLRQKAEADKNEKAVKDLVVLLFE	2.95
TLRQKAEADKNPKAVKDLVVLLFE	2.49

Variant	protein stability index
TLRQKAEADKNCKAVKDLVVLLFE	2.59
TLRQKAEADKNQKAVKDLVVLLFE	2.7
TLRQKAEADKNLKAVKDLVVLLFE	2.73
TLRQKAEADKNSKAVKDLVVLLFE	3.17
YLRQKAEADKNDKAVKDLVVLLFE	2.63
WLRQKAEADKNDKAVKDLVVLLFE	2.51
TLRQKAMADKNDKAVKDLVVLLFE	2.48
TLRQKASADKNDKAVKDLVVLLFE	2.67
TLRQKAVADKNDKAVKDLVVLLFE	2.63
TLRQKAPADKNDKAVKDLVVLLFE	2.58
TLRQKADADKNDKAVKDLVVLLFE	2.79
TLRQKANADKNDKAVKDLVVLLFE	2.72
TLRQKAWADKNDKAVKDLVVLLFE	1.81
TLRQKAKADKNDKAVKDLVVLLFE	2
TLRQKAYADKNDKAVKDLVVLLFE	1.79
TLRQKALADKNDKAVKDLVVLLFE	2.54
TLRQKARADKNDKAVKDLVVLLFE	2.29
TLRQKAQADKNDKAVKDLVVLLFE	1.9
TLRQKAIADKNDKAVKDLVVLLFE	2.63
TLRQKACADKNDKAVKDLVVLLFE	2.28
TLRQKAGADKNDKAVKDLVVLLFE	2.24
TLRQKAAADKNDKAVKDLVVLLFE	2.67
